Key:
Assay in all cases: cell-based or functional assay
[1] = target: T1, Cg.Ste2, Ste2-like mating GPCR of Candida glabrata (Candida glabrata)
T1 chain: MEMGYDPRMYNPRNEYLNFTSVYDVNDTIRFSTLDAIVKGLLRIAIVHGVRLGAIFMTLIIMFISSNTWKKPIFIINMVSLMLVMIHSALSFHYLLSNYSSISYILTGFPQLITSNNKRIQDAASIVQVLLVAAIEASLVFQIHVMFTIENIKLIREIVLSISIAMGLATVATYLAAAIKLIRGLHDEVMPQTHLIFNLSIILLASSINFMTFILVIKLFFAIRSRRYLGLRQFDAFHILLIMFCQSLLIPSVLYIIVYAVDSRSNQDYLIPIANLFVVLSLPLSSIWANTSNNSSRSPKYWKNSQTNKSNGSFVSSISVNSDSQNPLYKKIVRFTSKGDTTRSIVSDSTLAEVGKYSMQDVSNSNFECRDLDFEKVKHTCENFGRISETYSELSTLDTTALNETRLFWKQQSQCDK

[2] = target: T2, Cgu.Ste2, Ste2-like mating GPCR of Candida (Pichia) guilliermondii (Candida (Pichia) guilliermondii)
T2 chain: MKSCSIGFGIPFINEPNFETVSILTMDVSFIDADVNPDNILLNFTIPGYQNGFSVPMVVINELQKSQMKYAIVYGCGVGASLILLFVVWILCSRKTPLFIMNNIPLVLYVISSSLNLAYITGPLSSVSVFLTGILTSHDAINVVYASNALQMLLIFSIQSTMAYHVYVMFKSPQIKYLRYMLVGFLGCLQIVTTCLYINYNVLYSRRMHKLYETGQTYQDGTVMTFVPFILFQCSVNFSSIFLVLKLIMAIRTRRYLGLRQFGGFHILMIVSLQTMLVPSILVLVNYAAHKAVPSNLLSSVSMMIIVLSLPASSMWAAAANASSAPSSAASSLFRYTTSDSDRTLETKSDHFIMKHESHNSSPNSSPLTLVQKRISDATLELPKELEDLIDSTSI

[3] = target: T3, Cl.Ste2, Ste2-like mating GPCR of Candida (Clavispora) lusitaniae (Candida (Clavispora) lusitaniae)
T3 chain: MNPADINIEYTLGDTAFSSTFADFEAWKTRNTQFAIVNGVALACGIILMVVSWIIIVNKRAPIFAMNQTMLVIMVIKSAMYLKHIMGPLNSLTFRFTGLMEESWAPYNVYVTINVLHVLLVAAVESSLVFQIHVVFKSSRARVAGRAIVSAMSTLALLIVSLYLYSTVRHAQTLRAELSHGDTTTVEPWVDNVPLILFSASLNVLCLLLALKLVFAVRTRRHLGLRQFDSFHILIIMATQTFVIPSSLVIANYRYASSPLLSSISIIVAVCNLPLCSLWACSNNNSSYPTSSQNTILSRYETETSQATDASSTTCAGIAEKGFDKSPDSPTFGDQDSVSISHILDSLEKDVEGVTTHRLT

[4] = target: T4, Cn.Ste2, Ste2-like mating GPCR of Candida tenuis (Candida tenuis)
T4 chain: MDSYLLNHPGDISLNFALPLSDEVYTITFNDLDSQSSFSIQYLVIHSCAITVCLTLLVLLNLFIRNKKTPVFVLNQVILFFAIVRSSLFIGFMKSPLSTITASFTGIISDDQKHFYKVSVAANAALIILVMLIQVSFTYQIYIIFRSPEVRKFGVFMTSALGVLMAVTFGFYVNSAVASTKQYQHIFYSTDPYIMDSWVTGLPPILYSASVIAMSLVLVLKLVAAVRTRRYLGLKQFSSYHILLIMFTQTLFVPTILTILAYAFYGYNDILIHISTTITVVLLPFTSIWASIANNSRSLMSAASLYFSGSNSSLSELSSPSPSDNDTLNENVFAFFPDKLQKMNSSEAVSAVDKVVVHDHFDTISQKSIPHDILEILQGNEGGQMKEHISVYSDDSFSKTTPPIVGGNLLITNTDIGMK

[5] = target: T5, Cp.Ste2, Ste2-like mating GPCR of Candida parapsilosis (Candida parapsilosis)
T5 chain: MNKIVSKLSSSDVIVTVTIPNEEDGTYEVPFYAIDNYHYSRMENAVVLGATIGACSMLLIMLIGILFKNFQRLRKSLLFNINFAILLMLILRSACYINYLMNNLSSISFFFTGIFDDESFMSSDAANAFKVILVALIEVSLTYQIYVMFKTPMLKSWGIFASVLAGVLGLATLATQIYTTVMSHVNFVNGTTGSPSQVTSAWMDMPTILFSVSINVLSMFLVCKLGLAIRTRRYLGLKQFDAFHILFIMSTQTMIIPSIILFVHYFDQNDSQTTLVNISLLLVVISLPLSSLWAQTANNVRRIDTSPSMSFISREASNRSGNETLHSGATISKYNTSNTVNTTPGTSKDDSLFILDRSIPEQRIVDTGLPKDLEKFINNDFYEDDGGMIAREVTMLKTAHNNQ

WHWVRLRKGQGLF [Cg peptide ligand #1 WHWVRLRKGQGLF] was tested, and the “Bttm (FUS1p-RFP reporter)” value [1] was 30.5 fluorescence/A600 (not printed), the “EC50 (FUS1p-RFP reporter)” value [1] was -5.9 log10 M (not printed) and the “Fold Change (FUS1p-RFP reporter)” value [1] was 7 fold. The “Span (FUS1p-RFP reporter)” value [1] was 183 fluorescence/A600 (not printed) and the “Top (FUS1p-RFP reporter)” value [1] was 214 fluorescence/A600 (not printed).

KKNSRFLTYWFFQPIM [Cgu peptide ligand #1 KKNSRFLTYWFFQPIM] was tested, and the “Bttm (FUS1p-RFP reporter)” value [2] was 41.2 fluorescence/A600 (not printed), the “EC50 (FUS1p-RFP reporter)” value [2] was -7.4 log10 M (not printed) and the “Fold Change (FUS1p-RFP reporter)” value [2] was 5.1 fold. For the same binder, the “Span (FUS1p-RFP reporter)” value [2] was 170 fluorescence/A600 (not printed) and the “Top (FUS1p-RFP reporter)” value [2] was 212 fluorescence/A600 (not printed).

With KWKWIKFRNTDVIG [Cl peptide ligand #1 KWKWIKFRNTDVIG] the “Bttm (FUS1p-RFP reporter)” value [3] was 39.8 fluorescence/A600 (not printed), the “EC50 (FUS1p-RFP reporter)” value [3] was -7.5 log10 M (not printed) and the “Fold Change (FUS1p-RFP reporter)” value [3] was 1.4 fold. The “Span (FUS1p-RFP reporter)” value [3] was 186 fluorescence/A600 (not printed) and the “Top (FUS1p-RFP reporter)” value [3] was 226 fluorescence/A600 (not printed).

With FSWNYRLKWQPIS [Cn peptide ligand #1 FSWNYRLKWQPIS] the “Bttm (FUS1p-RFP reporter)” value [4] was 29.7 fluorescence/A600 (not printed), the “EC50 (FUS1p-RFP reporter)” value [4] was -7.4 log10 M (not printed) and the “Fold Change (FUS1p-RFP reporter)” value [4] was 5.1 fold. The “Span (FUS1p-RFP reporter)” value [4] was 122 fluorescence/A600 (not printed) and the “Top (FUS1p-RFP reporter)” value [4] was 152 fluorescence/A600 (not printed).

KPHWTTYGYYEPQ [Cp peptide ligand #1 KPHWTTYGYYEPQ] was tested, and the “Bttm (FUS1p-RFP reporter)” value [5] was 36.2 fluorescence/A600 (not printed), the “EC50 (FUS1p-RFP reporter)” value [5] was -8.5 log10 M (not printed) and the “Fold Change (FUS1p-RFP reporter)” value [5] was 7 fold. For the same binder, the “Span (FUS1p-RFP reporter)” value [5] was 218 fluorescence/A600 (not printed) and the “Top (FUS1p-RFP reporter)” value [5] was 254 fluorescence/A600 (not printed).
